The text below walks through data of the domain aggregation screens of Martell et al. (2025).

This series in a line: soluble fraction after stress (log2 fold change); higher = more stays soluble; pooled small domains, quantitative proteomics. To be noted: stress: pH 4. An outline of the steps:
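Values are log2 fold changes, and higher ones mean more of the domain stayed soluble. Each fold change reflects the soluble amount of a domain after acid stress and is taken as a measure of aggregation propensity. The stress was pH 4, applied to pooled custom libraries of small protein domains analysed by high-throughput quantitative proteomics.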
As for “HMGMYFTEMRKNEGLIALNGVAESNKRVSDLMDNLKDSSSFDAADIKAVKSGSGDASSLMDFELLVT”, the “soluble fraction (log2)” value was -0.452. The value for “HMGNASQAARRQRIVDAALELLQDRPYDQIQMRDVAEGAGVALGTLYRYFPSKEQLFAHVLVE” was -0.701; that for “HMGNEMQVPNVAGKTVDEAIEIFNNMGLKVAAENKYAQSDDVKEGDVVKTDPSSGRNVKKGSEITLYISQG” was 0.291. The value for “HMGNEVMYRQDLSEQELLSFIKKYTGQDEVTHIVVGAPKQRDNTPSPVETKITPFVVQLKAQFPDVNVV” was -0.217; that for “HMGNFNDMLKYLRVREKMSQAELADKLGVSKSTVGMYELGKREPDFETLEAIADLFNVDMNFLLGK” was -0.439. The value for “HMGNHMSFKMWGEQLQEAFRALETYDTQKAKTILNELVRFPIDSDITKALKGIISNIDDMMA” was -0.721; that for “HMGNLPPAVINARIKVSPAGRGVFVGFDKGSTSTEAKYADAIRGYLPNIEFNKDDHESVVTVPFNFR” was -0.0258. Take “HMGNTLAYSEFRQKVQEGAVKQVVLSEDRVTGELTNGDRFTANIVRDPELLKMLNDNNVKYDGKPT”: the “soluble fraction (log2)” value is -0.0484. The value for “HMGNVGEAIEALVKGFQEGNQFQTLLGVTGSGKTFTMANVIAALNKPTLIISHNKTLAAQLYLSLIHIS” was -0.255; that for “HMGNYRVIKWGMQGDDVKLMQQMLINRGYVLSATGKYASRTLKAIMAFQEANGLKADGIVGKRTWNKLL” was -0.134. In the case of “HMGPAYEKIVANGQTFYRYNVKKGEGLMAVSRTFNVSVNDILKYNPSAASGLKDGQELLIPVIDDA”, the “soluble fraction (log2)” value is -0.29.

As to “HMGPESKLTDAIKDYIYALYENLKGKSKFRNTIIEEVKKLYGVDISRESIRRVVNQKTDAETTENDDDEKA”, the “soluble fraction (log2)” value was 0.197. The value for “HMGPKALLKIPGLQEVDAELLFKEGYKSISAVASADPEMLKAIPGVDEQKVTEWVTGAEQILSQQVNKGA” was 0.25. Under “HMGPKPVDMSPIPEGQRNQVLHDWMYGRAANHPENWGQIRSDALERGLKSGLKADEIHAITGSVARALGLE” stands 0.0794. The value for “HMGPNPLTEREQEILQLARTGEPVARLAKRLFLSPGTVRNHLSSAIGKLGAANRVEAAQFATERGW” was -0.0238.

Turning to “HMGPSLDAVREQIRDLIAEEDKSAPYSDLSLVAELEKRGIHISRRTIAKYRGEMGIPNSDQRRYF”, the “soluble fraction (log2)” value was found to be 0.325. Under “HMGPSSIVVYVSGAVKTPGVYTLAPGSRVDDAVRAAGGLSERAESAGTNLAAQLSDGEHVHVAAAGE” stands -0.159. Under “HMGPTGGLTPHIAIADKRASEAIEFYKQAFGAVEQVRMPAEDGVRLMHAHLLVNGSSLMMHDDFPEYSGQ” stands 0.0087; under “HMGPTLSPAEKRVFEVIPYDAILQDMVIRAAELPPGEVLAALTTLELKGLIKRLPGNLVMRRAR”, -0.267; under “HMGPVALGVTDGATYFSSVTITFRRGTAVLDGEPIASGHTVYKSGAHSLTLTAGGKTRTIAFTMDT”, 0.139. The value for “HMGPVPLASAADMEKFYSHLQQVLDEVDFKDRTGSGHLMARLRRLFQRTVLDQNEINILRGILMAVQGRR” was -0.959; that for “HMGQGAASAPLRELGVDPVSEKQMVLKDGRFGPYVTDGETNASLRKGDEVETITDERASELLQMRRDAGPS” was 0.0347; that for “HMGQISDDGALKKLASEVLAANPQALADWKAGKQQAVSFLVGQAMKASKGRGDAALLGELIRAALD” was 0.0477. Take “HMGQKASEVEKIFVELQQQIIRGDLPPGYRLVESQIAAQFGVSRTPARLAIERLATAGLVAHETNRGATVH”: the “soluble fraction (log2)” value was -0.36. Under “HMGQKNEDESLAKFYVHKKGNQYGPYSLIQIREYLKNNSFSLDDLASWDGQSWKKISQIPNLN” stands 0.182; under “HMGQLTDKQILLFSGKLAYEPTFASKYSKAGESYDDFIIRISGDLTDPKKIKEYSPYLKELGF”, -0.954; under “HMGQNYTIVKGDSLWKIAQKQYGDGSQWKKIYDANKDAIESAAKKYGKKSSDSGKWIYPGVSLII”, 0.134. As to “HMGQVEVPDVVGMTQERAITTLTEAKLVAQIQLTPADVAKGLVAAQSPRAGLKIGEGSFVTIEVSTGPVI”, the “soluble fraction (log2)” value was found to be 0.229. On to “HMGQVFEGTFNRKANGKNSVTPAEGGEPVFIAERNSLHAMNGDLVKVSLLAKKKHQPREAQVIEILKRSD”, for which the “soluble fraction (log2)” value was 0.338. Turning to “HMGQVPPLTRRETEIARLVSRGLSNKEIASTLVISPRTAEGHVEHILDKLGFSSRTQIATWLNEQTRNGK”, the “soluble fraction (log2)” value was found to be 0.313. The value for “HMGRDWKTDLLNLATARGWGDVSYEVTGEGPDHARVYTAVAIVANQKTGTGVGPSKKEAERLAAEQAYRML” was 0.132.

Regarding “HMGRELSDLELSLLRILDDKIPLLIDEAADRLQLPVAQVLSAVTIMEIDGLIRREGMRKYLRTVEVEETK”, the “soluble fraction (log2)” value is -1.3.

In the case of “HMGRFAETVEHIVAAQLARRQGIPTMEQFASFFNVSRATFQRRLGEEGETLEQIKQRVRLRLALELLHP”, the “soluble fraction (log2)” value is -0.441. As for “HMGRGAAKGPLKELGLDPVTGRPLVVKDGKFGMYVTDGETNAGLRRGDLVEQLTLDRGMELLAERRARADQ”, the “soluble fraction (log2)” value was -0.258. Under “HMGRKIDDPSSMTGAEKAAVILLALGDEQRQLWEMMDDEEIRVVSQAMVNLGNVTSGAVEKLIMEFVGSMS” stands -0.425; under “HMGRKPATTIPLQVRNAVLDLYRTKYYGANFQHYTELLHEHEGIRISTSSVAKILEAEYILSPK”, -0.838; under “HMGRKPVSPEIVERVLQLAKSNPDWGYEHIAGTMRYLGYNVSATTIRHILEANGIVPDPERRL”, -0.543. The value for “HMGRMSLDEAKAVILPIGEHKGHTMGEVLAIKPGLIDFYASQKFNSGKYPYLKEAAQVILENQG” was 0.173; that for “HMGRRERKKLQSRRAIIEAAVTEFKEKGFREASVADIMTRADLGLGTFYNYFQSKEDILMSLLS” was -0.0713; that for “HMGRRRAAPQEPLRQFPASPVTGQPIKLLLGQYGPYVTDGTTNASLPKGSSPDELTFEQATQLLAERALRG” was 0.0322.

As to “HMGRSARVQQAVHQAVRALLEENDGERSALSVPLVAERAGVNSSTIYRRWGDLPRLLAAVASN”, the “soluble fraction (log2)” value was 0.0284. Take “HMGRTVKGVNFVGLRDAGDPVDLAEIYSKEGADELVFLDITATHEKRKTLLDLVTRVAERINIPFTVGGGI”: the “soluble fraction (log2)” value was -0.331. Under “HMGSALLEAGADDAGQRLDQWLAAKLGPSISRSRVQALIKQGAVLVGGKPAGEAKRKLVAGDVVSVALPEP” stands 0.133. The value for “HMGSDLVAWAQTRIGRHPEEAADVIAALIDRHGEARVRAASRSLLARKFAHASDLRTAIDAAIG” was 0.0531; that for “HMGSEEMLGALGVVERATDDGDWWIAVHGEHWRARSAQALVPGDRVRVARIDGLTLTVTPIA” was 0.0708.

Consider “HMGSEGVKVEDTIGMSEAEATATLGKSGFVVNKTESHDPYIKAGNVITQSPAAGSKAPKGTTVTLTISLGP”, for which the “soluble fraction (log2)” value worked out at 0.423. Under “HMGSEISYSEFLNRVEQGQVAAVRLDGEQIFITGPTGEAYQTIQPRNTDVLPDLREAGVEIQAAPQ” stands -0.675; under “HMGSEYPSNPLASRWAKGVRLYHDEWGYGVIQAARGSEPDDYVITVRFESGAEKSFLPKFQAHSLMIVKD”, -0.974. The value for “HMGSGQVTLPDLEGKSMKEVARILSQLGLHLSPDGHGLAFKQSPAAGTRVPVGSTIKVSFQPL” was -0.208; that for “HMGSKKAIPYVSGMSETEAQNELEEAGFKVTSSFQYDDSVESGKVISTTPEAGTKAEKGSTVTMLVSQGSN” was 0.0696. For the sequence “HMGSLVQTAMQAVTKHIHDNAMRVGDTLPGEGHFAETLGVSRAVMREAFGALAALKLIDVGNGRKPRVGR”, the “soluble fraction (log2)” value was 0.091. The value for “HMGSNATIKYAIKGDESLVQVAQKFNVTVSELRSWNNISAFENAKTGQELVINVPASKYETYFALANT” was -0.0194.

For “HMGSNLSFDLSQIIASRYQEKAAELGLTAPSLARTDLSPQEQATAEVVARAIIADYYDQRVAPFNDLIPQ”, the “soluble fraction (log2)” value was -1.54. The value for “HMGSNRPLALGDVVRIEGSKTLGTILELNAKDAVVALGALKTTLPLSRIHHASSQESQRLKRQATQAPLR” was 0.0932; that for “HMGSPKLVIKNGQVDYQVLKKEKLDLLELTSLLRGQNTFSIREIEYAIIEPNGVITVIKKPEYQSVVKGDL” was -1. Under “HMGSPVTAVMNRVLNETERQIVTLHVISGFKHREIAELLEKPVGTVLWTYNNALGKMRKAMQRE” stands -0.603.

Take “HMGSRRFGDSNHAAKLTEEQVVEIRELAAAGATTKFLAEMVGMHPNYVGLILRGLSWPEAGGPLRVA”: the “soluble fraction (log2)” value amounted to 0.0889. The value for “HMGSVDMVYGDHKINSEHMDLSFKNQTAVLYDKVNYKSSLSMLSADKILVNFLNKYTKIEMNDENNNILIQ” was -0.128; that for “HMGSVNDNVQKLTSQIGETTETGDTITPEDVELYKKMVDPLSTMAQKLEAAEILKLKGIIGSNGIIV” was -0.0476; that for “HMGSWEDALKNWVDSALASGQKGILEQAVPKFERIMIETALTHTAGRRRDASLLLGWGRNTLTRKIKELGI” was 0.0465. Turning to “HMGTAESIRLFLSSGLIKGVGEALAGRIVDTFGTDTFDIIENHPELLAGVKGISHRLAMSIYESFSQHIGV”, the “soluble fraction (log2)” value was -0.951. The value for “HMGTDIGADKAAQTALADAGLSSSQVTGLRTKQDWDDGQLRYEVEFRAGGVEYDYELAADGTILKADRDT” was 0.254. For the sequence “HMGTEITEQRAKEIALENAKVAESDVTAMRVKKEMDDGVWRYDVEFYVQNKEYDYEINAMDGTILSVDYD”, the “soluble fraction (log2)” value was 0.0797.

As for “HMGTESFGARIRKIREARDWTPAALAEATGQTPEFVARVERDEVAPPVAFLLRLAAALGVDPSTF”, the “soluble fraction (log2)” value was -0.672. Under “HMGTGADKNSWTIGDKVKHRKWGTGTVVKVTGAGEDAELDIAFKSEGIKRLLAAFAPIEKVK” stands -0.0706. Take “HMGTHDAGTRFFDNLDSLLQNRDATRADVLAVYLLAVSLGFRGKHRSVSSAPQIAHYRNQAYVTLFQ”: the “soluble fraction (log2)” value was -0.386. The value for “HMGTIEQAFKGKAPGSAHLYDRARAVLAGGVTHDTRIHAPFPIMVQRALGARKWDVDGNEYIDY” was -0.259; that for “HMGTMKGFVDGSSVHLRSGPSLSESIRAKVVKGQTLYITERRGDWYRATVHGGGEGWIHTSLVKLAG” was 0.261.
